Values of other authors, collected in patent US10294487B2, “Methods and compositions involving ALS variants with native substrate preference” (E I DU PONT DE NEMOURS AND COMPANY, priority 2012, dated 2019).

Key:
ALS [1] = details: cited from earlier work; for Resistance pattern, I50 fold increase: IEt: imazethapyr; for Resistance pattern, I50 fold increase: SU: sulfonylurea(s); for Resistance pattern, I50 fold increase: IM: imidazolinone(s)
ALS [2] = details: cited from earlier work; for Kinetic parameters: Km / Kinetic parameters: kcat: pyruvate reaction

| Molecule | Resistance pattern, I50 fold increase: IEt (ALS [1]) | Resistance pattern, I50 fold increase: SU (ALS [1]) | Kinetic parameters: Km (ALS [2]) | Kinetic parameters: kcat (ALS [2]) | Resistance pattern, I50 fold increase: IM (ALS [1]) | Resistance pattern, I50 fold increase: IP (ALS [1]; IP (abbreviation not defined)) [fold] | Kinetic parameters: Kc for FAD (ALS [2]; cofactor activation constant, flavin adenine dinucleotide) | Kinetic parameters: Kc for TPP (ALS [2]; cofactor activation constant, thiamin pyrophosphate) |
| --- | --- | --- | --- | --- | --- | --- | --- | --- |
| P192S: Site-directed mutation in S. cerevisiae ALS; position P197, 178 (protein, UniProt P07342 91-687, looked up, variant P192S) Acetolactate synthase …: GLTGGQIFNEMMSRQNVDTVFGYPGGAILPVYDAIHNSDKFNFVLPKHEQGAGHMAEGYARASGKPGVVLVTSGPGATNVVTPMADAFADGIPMVVFTGQVSTSAIGTDAFQEADVVGISRSCTKWNVMVKSVEELPLRINEAFEIATSGRPGPVLVDLPKDVTAAILRNPIPTKTTLPSNALNQLTSRAQDEFVMQSINKAADLINLAKKPVLYVGAGILNHADGPRLLKELSDRAQIPVTTTLQGLGSFDQEDPKSLDMLGMHGCATANLAVQNADLIIAVGARFDDRVTGNISKFAPEARRAAAEGRGGIIHFEVSPKNINKVVQTQIAVEGDATTNLGKMMSKIFPVKERSEWFAQINKWKKEYPYAYMEETPGSKIKPQTVIKKLSKVANDTGRHVIVTTGVGQHQMWAAQHWTWRNPHTFITSGGLGTMGYGLPAAIGAQVAKPESLVIDIDGDASFNMTLTELSSAVQAGTPVKILILNNEEQGMVTQWQSLFYEHRYSHTHQLNPDFIKLAEAMGLKGLRVKKQEELDAKLKEFVSTKGPVLLEVEVDKKVPVLPMVAGGSGLDEFINFDPEVERQQTELRHKRTGGKH | IEt, 10 fold | SUs, 400-2000 fold | Km, 75 % wt | kcat, 25 % wt |  |  |  |  |
| K251T: Site-directed mutation in S. cerevisiae ALS; position K256, 237 (protein, UniProt P07342 91-687, looked up, variant K251T) Acetolactate synthase …: GLTGGQIFNEMMSRQNVDTVFGYPGGAILPVYDAIHNSDKFNFVLPKHEQGAGHMAEGYARASGKPGVVLVTSGPGATNVVTPMADAFADGIPMVVFTGQVPTSAIGTDAFQEADVVGISRSCTKWNVMVKSVEELPLRINEAFEIATSGRPGPVLVDLPTDVTAAILRNPIPTKTTLPSNALNQLTSRAQDEFVMQSINKAADLINLAKKPVLYVGAGILNHADGPRLLKELSDRAQIPVTTTLQGLGSFDQEDPKSLDMLGMHGCATANLAVQNADLIIAVGARFDDRVTGNISKFAPEARRAAAEGRGGIIHFEVSPKNINKVVQTQIAVEGDATTNLGKMMSKIFPVKERSEWFAQINKWKKEYPYAYMEETPGSKIKPQTVIKKLSKVANDTGRHVIVTTGVGQHQMWAAQHWTWRNPHTFITSGGLGTMGYGLPAAIGAQVAKPESLVIDIDGDASFNMTLTELSSAVQAGTPVKILILNNEEQGMVTQWQSLFYEHRYSHTHQLNPDFIKLAEAMGLKGLRVKKQEELDAKLKEFVSTKGPVLLEVEVDKKVPVLPMVAGGSGLDEFINFDPEVERQQTELRHKRTGGKH |  | SU, 10-100 fold | 65 % wt | 1 % wt | IMs, 10-150 fold |  |  |  |
| M354V: Site-directed mutation in S. cerevisiae ALS; position M351, 332 (protein, UniProt P07342 91-687, looked up, variant M354V) Acetolactate synthase …: GLTGGQIFNEMMSRQNVDTVFGYPGGAILPVYDAIHNSDKFNFVLPKHEQGAGHMAEGYARASGKPGVVLVTSGPGATNVVTPMADAFADGIPMVVFTGQVPTSAIGTDAFQEADVVGISRSCTKWNVMVKSVEELPLRINEAFEIATSGRPGPVLVDLPKDVTAAILRNPIPTKTTLPSNALNQLTSRAQDEFVMQSINKAADLINLAKKPVLYVGAGILNHADGPRLLKELSDRAQIPVTTTLQGLGSFDQEDPKSLDMLGVHGCATANLAVQNADLIIAVGARFDDRVTGNISKFAPEARRAAAEGRGGIIHFEVSPKNINKVVQTQIAVEGDATTNLGKMMSKIFPVKERSEWFAQINKWKKEYPYAYMEETPGSKIKPQTVIKKLSKVANDTGRHVIVTTGVGQHQMWAAQHWTWRNPHTFITSGGLGTMGYGLPAAIGAQVAKPESLVIDIDGDASFNMTLTELSSAVQAGTPVKILILNNEEQGMVTQWQSLFYEHRYSHTHQLNPDFIKLAEAMGLKGLRVKKQEELDAKLKEFVSTKGPVLLEVEVDKKVPVLPMVAGGSGLDEFINFDPEVERQQTELRHKRTGGKH | 90 fold | SUs, 5-85 fold | Km, 60 % wt | kcat, 50 % wt |  | 10 |  |  |
| A200V: Site-directed mutation in S. cerevisiae ALS; position A205, 186 (protein, UniProt P07342 91-687, looked up, variant A200V) Acetolactate synthase …: GLTGGQIFNEMMSRQNVDTVFGYPGGAILPVYDAIHNSDKFNFVLPKHEQGAGHMAEGYARASGKPGVVLVTSGPGATNVVTPMADAFADGIPMVVFTGQVPTSAIGTDVFQEADVVGISRSCTKWNVMVKSVEELPLRINEAFEIATSGRPGPVLVDLPKDVTAAILRNPIPTKTTLPSNALNQLTSRAQDEFVMQSINKAADLINLAKKPVLYVGAGILNHADGPRLLKELSDRAQIPVTTTLQGLGSFDQEDPKSLDMLGMHGCATANLAVQNADLIIAVGARFDDRVTGNISKFAPEARRAAAEGRGGIIHFEVSPKNINKVVQTQIAVEGDATTNLGKMMSKIFPVKERSEWFAQINKWKKEYPYAYMEETPGSKIKPQTVIKKLSKVANDTGRHVIVTTGVGQHQMWAAQHWTWRNPHTFITSGGLGTMGYGLPAAIGAQVAKPESLVIDIDGDASFNMTLTELSSAVQAGTPVKILILNNEEQGMVTQWQSLFYEHRYSHTHQLNPDFIKLAEAMGLKGLRVKKQEELDAKLKEFVSTKGPVLLEVEVDKKVPVLPMVAGGSGLDEFINFDPEVERQQTELRHKRTGGKH |  | SUs, 300-700 fold | 100 % wt | 20 % wt | IMs, 10-100 fold |  |  |  |
| D379N: Site-directed mutation in S. cerevisiae ALS; position D376, 357 (protein, UniProt P07342 91-687, looked up, variant D379N) Acetolactate synthase …: GLTGGQIFNEMMSRQNVDTVFGYPGGAILPVYDAIHNSDKFNFVLPKHEQGAGHMAEGYARASGKPGVVLVTSGPGATNVVTPMADAFADGIPMVVFTGQVPTSAIGTDAFQEADVVGISRSCTKWNVMVKSVEELPLRINEAFEIATSGRPGPVLVDLPKDVTAAILRNPIPTKTTLPSNALNQLTSRAQDEFVMQSINKAADLINLAKKPVLYVGAGILNHADGPRLLKELSDRAQIPVTTTLQGLGSFDQEDPKSLDMLGMHGCATANLAVQNADLIIAVGARFDNRVTGNISKFAPEARRAAAEGRGGIIHFEVSPKNINKVVQTQIAVEGDATTNLGKMMSKIFPVKERSEWFAQINKWKKEYPYAYMEETPGSKIKPQTVIKKLSKVANDTGRHVIVTTGVGQHQMWAAQHWTWRNPHTFITSGGLGTMGYGLPAAIGAQVAKPESLVIDIDGDASFNMTLTELSSAVQAGTPVKILILNNEEQGMVTQWQSLFYEHRYSHTHQLNPDFIKLAEAMGLKGLRVKKQEELDAKLKEFVSTKGPVLLEVEVDKKVPVLPMVAGGSGLDEFINFDPEVERQQTELRHKRTGGKH |  | SUs, 200-900 fold | Km, 133 % wt | kcat, 140 % wt | hypersensitivity |  |  |  |
| W586L: Site-directed mutation in S. cerevisiae ALS; position W574, 555 (protein, UniProt P07342 91-687, looked up, variant W586L) Acetolactate synthase …: GLTGGQIFNEMMSRQNVDTVFGYPGGAILPVYDAIHNSDKFNFVLPKHEQGAGHMAEGYARASGKPGVVLVTSGPGATNVVTPMADAFADGIPMVVFTGQVPTSAIGTDAFQEADVVGISRSCTKWNVMVKSVEELPLRINEAFEIATSGRPGPVLVDLPKDVTAAILRNPIPTKTTLPSNALNQLTSRAQDEFVMQSINKAADLINLAKKPVLYVGAGILNHADGPRLLKELSDRAQIPVTTTLQGLGSFDQEDPKSLDMLGMHGCATANLAVQNADLIIAVGARFDDRVTGNISKFAPEARRAAAEGRGGIIHFEVSPKNINKVVQTQIAVEGDATTNLGKMMSKIFPVKERSEWFAQINKWKKEYPYAYMEETPGSKIKPQTVIKKLSKVANDTGRHVIVTTGVGQHQMWAAQHWTWRNPHTFITSGGLGTMGYGLPAAIGAQVAKPESLVIDIDGDASFNMTLTELSSAVQAGTPVKILILNNEEQGMVTQLQSLFYEHRYSHTHQLNPDFIKLAEAMGLKGLRVKKQEELDAKLKEFVSTKGPVLLEVEVDKKVPVLPMVAGGSGLDEFINFDPEVERQQTELRHKRTGGKH |  | SUs, 1000-10000 fold | Km, 80 % wt | kcat, 450 % wt | IMs, 8-70 fold |  |  |  |
| A122V: Site-directed mutation in A. thaliana ALS; position A122, 103 (protein, UniProt P17597 56-670, looked up, variant A122V) Acetolactate synthase, …: SSSPSSISAVLNTTTNVTTTPSPTKPTKPETFISRFAPDQPRKGADILVEALERQGVETVFAYPGGVSMEIHQALTRSSSIRNVLPRHEQGGVFAAEGYARSSGKPGICIATSGPGATNLVSGLADALLDSVPLVAITGQVPRRMIGTDAFQETPIVEVTRSITKHNYLVMDVEDIPRIIEEAFFLATSGRPGPVLVDVPKDIQQQLAIPNWEQAMRLPGYMSRMPKPPEDSHLEQIVRLISESKKPVLYVGGGCLNSSDELGRFVELTGIPVASTLMGLGSYPCDDELSLHMLGMHGTVYANYAVEHSDLLLAFGVRFDDRVTGKLEAFASRAKIVHIDIDSAEIGKNKTPHVSVCGDVKLALQGMNKVLENRAEELKLDFGVWRNELNVQKQKFPLSFKTFGEAIPPQYAIKVLDELTDGKAIISTGVGQHQMWAAQFYNYKKPRQWLSSGGLGAMGFGLPAAIGASVANPDAIVVDIDGDGSFIMNVQELATIRVENLPVKVLLLNNQHLGMVMQWEDRFYKANRAHTFLGDPAQEDEIFPNMLLFAAACGIPAARVTKKADLREAIQTMLDTPGPYLLDVICPHQEHVLPMIPSGGTFNDVITEGDGRIKY |  | SUs, 4 fold | Km, 160 % wt | kcat, 25 % wt | IMs, 1000-2000 fold |  | Kc for FAD, 400 % wt | Kc for TPP, 2000 % wt |
